Assays:
S. aureus Sp10 = test: MIC assay over several culture cycles (resistance development); format: cell-based, Staphylococcus aureus
Text: Becker et al. (Sci Rep. 2016 Apr. 28; 6:25063) reported construction of fusion protein L-K with reduced incidence of resistant S. aureus strain development. In an attempt to provide other improved fusion proteins against S. aureus, the inventors generated two fusion proteins, each comprising the CHAP domain of LysK endolysin, the M23 endopeptidase domain of lysostaphin; and the cell wall binding domain (CBD) of ALE-1. In addition, one of the fusion proteins did comprise the cathepsin G (77-83) peptide (SEQ ID NO:94), the other the cationic peptide KNK (SEQ ID NO:38). The resulting fusion proteins (SEQ ID NO:105 and SEQ ID NO: 107) were assayed for antibacterial activity and resistance development. For this purpose MIC (minimal inhibitory concentration) assays (see below) were carried out for several culture cycles.
MIC assay S. aureus Sp10 was grown in (Luria-Bertani) medium and diluted 1:10 in Mueller-Hinton medium. At an optical density OD600 of about 0.6, bacteria were diluted in the same medium 1:10 followed by a 1:500 dilution. Protein buffer (20 mM HEPES, 500 mM NaCl, pH 7.4) and proteins or gentamycin were pipetted into a 96 well plate, using different concentrations of proteins/gentamycin and an end volume of 20 μl. The proteins used were the fusion proteins according to SEQ ID NO:105 and SEQ ID NO: 107. 180 μl of bacterial cells or a medium (Mueller-Hinton) control were given to the 96 well plate and mixed. The plate was incubated for 18-22 hours at 37° C. and the bacterial growth was determined measuring the OD600 values of the wells. The well with the lowest concentration of protein/gentamycin showing the same OD600 value as the medium control was taken as MIC. For the next cycle, the bacterial solution from the sub-MIC well was used. The sub-MIC well is the well in which the next lower concentration to the MIC concentration was tested, i.e. the well with the highest concentration of protein/gentamycin but still OD600 above the medium control. For further cycles of the resistance assay, the bacteria from this sub-MIC well of the previous cycle were taken for the next over-night culture.

[1] = system: Staphylococcus aureus DSM 346; test: Thermal stability assay (standard MIC assay after heat incubation); format: cell-based; details: for MIC: protein 0.3 mg/ml, DSM 346; for thermal stability: in comparison to the unmodified fusion protein
Protocol: In addition, thermal stability was assessed for two of said mutants in comparison to the unmodified fusion protein. The thermal stability assay was carried out with the strain Staphylococcus aureus DSM 346. The proteins were diluted to a concentration of 0.3 mg/ml followed by an incubation for 20 minutes at different temperatures (see table 8 below). A standard MIC assay was carried out after this incubation time.

[2] = cycle 1 (initial MIC), S. aureus Sp10
[3] = cycle 1, fold change over initial MIC (cycle 1)
[4] = cycle 6, fold change over initial MIC (cycle 1)
[5] = cycle 12, fold change over initial MIC (cycle 1)
[6] = after 20 minutes incubation at 44.6° C.
[7] = after 20 minutes incubation at 47.1° C.
[8] = after 20 minutes incubation at 49.7° C.
[9] = after 20 minutes incubation at 52.3° C.
[10] = after 20 minutes incubation at 54.9° C.
[11] = after 20 minutes incubation at 57.4° C.
[12] = after 20 minutes incubation at 60° C.
[13] = after 20 minutes incubation at RT

Molecule: gentamycin [reference compound]
- Minimal inhibitory concentration (MIC) (S. aureus Sp10; [2]): 0.8 µg/mL
- Fold change of MIC (S. aureus Sp10; [3]): 1
- Minimal inhibitory concentration (MIC) (S. aureus Sp10; cycle 6, S. aureus Sp10): 4 µg/mL
- Fold change of MIC (S. aureus Sp10; [4]): 5
- Minimal inhibitory concentration (MIC) (S. aureus Sp10; cycle 12, S. aureus Sp10): 6 µg/mL
- Fold change of MIC (S. aureus Sp10; [5]): 7.5

B1: Clone 11: variant of SEQ ID NO: 107 with mutations K17E, H51Q (protein)
chain: MAKTQAEINKRLDAYAEGTVDSPYRVKKATSYDPSFGVMEAGAIDADGYYQAQCQDLITDYVLWLTDNKVRTWGNAKDQIKQSYGTGFKIHENKPSTVPKKGWIAVFTSGSYEQWGHIGIVYDGGNTSTFTILEQNWNGYANKKPTKRVDNYYGLTHFIEIPVKAGTTVKKETAKKSATSHEHSAQWLNNYKKGYGYGPYPLGINGGMHYGVDFFMNIGTPVKAISSGKIVEAGWSNYGGGNQIGLIENDGVHRQWYMHLSKYNVKVGDYVKAGQIIGWSGSTGYSTAPHLHFQRMVNSFSNSTAQDPMPFLKSAGYGKAGGTVTPTPNPGNGYKTNKYGTLYKSESASFTANTDIITRLTGPFRSMPQSGVLRKGLTIKYDEVMKQDGHVWVGYNTNSGKRVYLPVRTWNESTGELGPLWGTIKGSHHHHHHGGSKNK
modifications: Fusion protein comprising CHAP domain of LysK endolysin, M23 endopeptidase domain of lysostaphin, cell wall binding domain of ALE-1, His6-tag and synthetic peptide KNK
- MIC [1, 6]: 6 µg/mL
- MIC [1, 7]: 10 µg/mL
- MIC [1, 8]: 10 µg/mL
- MIC [1, 9]: 16 µg/mL
- MIC [1, 10]: >30 µg/mL
- MIC [1, 11]: >30 µg/mL
- MIC [1, 12]: >30 µg/mL
- MIC [1, 13]: 4 µg/mL
- thermal stability [1]: increased thermal stability

B2: Clone 15: variant of SEQ ID NO: 107 with mutations K17E, H51Q, K28N, T86A, G154S (protein)
chain: MAKTQAEINKRLDAYAEGTVDSPYRVKNATSYDPSFGVMEAGAIDADGYYQAQCQDLITDYVLWLTDNKVRTWGNAKDQIKQSYGAGFKIHENKPSTVPKKGWIAVFTSGSYEQWGHIGIVYDGGNTSTFTILEQNWNGYANKKPTKRVDNYYSLTHFIEIPVKAGTTVKKETAKKSATSHEHSAQWLNNYKKGYGYGPYPLGINGGMHYGVDFFMNIGTPVKAISSGKIVEAGWSNYGGGNQIGLIENDGVHRQWYMHLSKYNVKVGDYVKAGQIIGWSGSTGYSTAPHLHFQRMVNSFSNSTAQDPMPFLKSAGYGKAGGTVTPTPNPGNGYKTNKYGTLYKSESASFTANTDIITRLTGPFRSMPQSGVLRKGLTIKYDEVMKQDGHVWVGYNTNSGKRVYLPVRTWNESTGELGPLWGTIKGSHHHHHHGGSKNK
modifications: Fusion protein comprising CHAP domain of LysK endolysin, M23 endopeptidase domain of lysostaphin, cell wall binding domain of ALE-1, His6-tag and synthetic peptide KNK
- MIC [1, 6]: 4 µg/mL
- MIC [1, 7]: 4 µg/mL
- MIC [1, 8]: 4 µg/mL
- MIC [1, 9]: 4 µg/mL
- MIC [1, 10]: 4 µg/mL
- MIC [1, 11]: 6 µg/mL
- MIC [1, 12]: 8 µg/mL
- MIC [1, 13]: 4 µg/mL
- thermal stability [1]: increased thermal stability

B3: SEQ ID NO: 105: fusion protein: CHAP domain of LysK, M23 endopeptidase domain of lysostaphin, CBD of ALE-1 and a further peptide (cathepsin G (77-83) or KNK) (protein)
chain: MAKTQAEINKRLDAYAKGTVDSPYRVKKATSYDPSFGVMEAGAIDADGYYHAQCQDLITDYVLWLTDNKVRTWGNAKDQIKQSYGTGFKIHENKPSTVPKKGWIAVFTSGSYEQWGHIGIVYDGGNTSTFTILEQNWNGYANKKPTKRVDNYYGLTHFIEIPVKAGTTVKKETAKKSATSHEHSAQWLNNYKKGYGYGPYPLGINGGMHYGVDFFMNIGTPVKAISSGKIVEAGWSNYGGGNQIGLIENDGVHRQWYMHLSKYNVKVGDYVKAGQIIGWSGSTGYSTAPHLHFQRMVNSFSNSTAQDPMPFLKSAGYGKAGGTVTPTPNPGNGYKTNKYGTLYKSESASFTANTDIITRLTGPFRSMPQSGVLRKGLTIKYDEVMKQDGHVWVGYNTNSGKRVYLPVRTWNESTGELGPLWGTIKHHHHHHLKHPQYNQR
modifications: Fusion protein comprising CHAP domain of LysK endolysin, M23 endopeptidase domain of lysostaphin, cell wall binding domain of ALE-1, His6-tag and synthetic peptide HPQYNQR
- Minimal inhibitory concentration (MIC) (S. aureus Sp10; [2]): 4 µg/mL
- Fold change of MIC (S. aureus Sp10; [3]): 1
- Minimal inhibitory concentration (MIC) (S. aureus Sp10; cycle 6, S. aureus Sp10): 4 µg/mL
- Fold change of MIC (S. aureus Sp10; [4]): 1
- Minimal inhibitory concentration (MIC) (S. aureus Sp10; cycle 12, S. aureus Sp10): 6 µg/mL
- Fold change of MIC (S. aureus Sp10; [5]): 1.5

B4: SEQ ID NO: 107: fusion protein: CHAP domain of LysK, M23 endopeptidase domain of lysostaphin, CBD of ALE-1 and a further peptide (cathepsin G (77-83) or KNK) (protein)
chain: MAKTQAEINKRLDAYAKGTVDSPYRVKKATSYDPSFGVMEAGAIDADGYYHAQCQDLITDYVLWLTDNKVRTWGNAKDQIKQSYGTGFKIHENKPSTVPKKGWIAVFTSGSYEQWGHIGIVYDGGNTSTFTILEQNWNGYANKKPTKRVDNYYGLTHFIEIPVKAGTTVKKETAKKSATSHEHSAQWLNNYKKGYGYGPYPLGINGGMHYGVDFFMNIGTPVKAISSGKIVEAGWSNYGGGNQIGLIENDGVHRQWYMHLSKYNVKVGDYVKAGQIIGWSGSTGYSTAPHLHFQRMVNSFSNSTAQDPMPFLKSAGYGKAGGTVTPTPNPGNGYKTNKYGTLYKSESASFTANTDIITRLTGPFRSMPQSGVLRKGLTIKYDEVMKQDGHVWVGYNTNSGKRVYLPVRTWNESTGELGPLWGTIKGSHHHHHHGGSKNK
modifications: Fusion protein comprising CHAP domain of LysK endolysin, M23 endopeptidase domain of lysostaphin, cell wall binding domain of ALE-1, His6-tag and synthetic peptide KNK
- MIC [1, 6]: 20 µg/mL
- MIC [1, 7]: 25 µg/mL
- MIC [1, 8]: 30 µg/mL
- MIC [1, 9]: 30 µg/mL
- MIC [1, 10]: >30 µg/mL
- MIC [1, 11]: >30 µg/mL
- MIC [1, 12]: >30 µg/mL
- MIC [1, 13]: 6 µg/mL
- Minimal inhibitory concentration (MIC) (S. aureus Sp10; [2]): 4 µg/mL
- Fold change of MIC (S. aureus Sp10; [3]): 1
- Minimal inhibitory concentration (MIC) (S. aureus Sp10; cycle 6, S. aureus Sp10): 4 µg/mL
- Fold change of MIC (S. aureus Sp10; [4]): 1
- Minimal inhibitory concentration (MIC) (S. aureus Sp10; cycle 12, S. aureus Sp10): 6 µg/mL
- Fold change of MIC (S. aureus Sp10; [5]): 1.5
